# US20220396620A1 (Takeda / Millennium, published 2022)
# Positions count from the first letter of the chain named.
# B1: M1 mouse anti-huCB-1 antibody (antibody, V domains shown)
# VH: QVQLQQSGAELVRPGVSVKISCKGSGYTFTDHALHWVKQSQARSLEWIGIISTYYGDATYNQKFKGKATMTVDKSSSTAYMELARLTSEDSAFYYCARGGLYYGTNYRAMDYWGQGTSVTVSS
# VL: DIVMTQSQKFMSTSVGDRVSVTCKASQNVGSNVAWYQQKPGQSPKALIYSASYRYSGVPDRFTGSGSGTDFTLTISNVQSEDLAEYFCQQYNNYPFTFGSGTKLEIK
# B2: M7 mouse anti-huCB-1 antibody (antibody, V domains shown)
# VH: EVQLQQPGAELVRPGASVKLSCKASSYTFTRYWMNWVKQRPEEGLEWIGMIDPYDSETHYNQKFKDKAILTVDKSSSTAYMQLSTLTSEDSAVYFCARSQPRYYAMDYWGQGTSVTVSS
# VL: DIQMSQSPSSLSASLGERVSLTCRASQEISGFLSWLQLRPDGTIKRLIYAASSLDSGVPKRFRGSWSGSDYSLTISSLESEDFADYYCLQYSSYPYTFGGGTKLEIK
# B3: M3 mouse anti-huCB-1 antibody (antibody, V domains shown)
# VH: QVQLQQSGPELVRPGVSVKISCKGSGYEFTDYALHWVKQSHAETLEWIGLITTYYGDTNYNQKFKGKATMTVDKSSSTAYMELARLTSEDSAIYYCARGGYYYGTDYRYFDVWGAGTTVTVSS
# VL: DILLTQSPAILSVSPGERVSFSCRASQSIGTNIHWYQQRPNGSPRLLIKYASESISGIPSRFSGSGSGSDFTLSINSVESEDIADYYCQQSITWPLTFGAGTKLELK
# B4: M5 mouse anti-huCB-1 antibody (antibody, V domains shown)
# VH: QVHLQQSGAELVRPGSSVKISCKASGYEFSYYWMNWVKQRPGQGHEWIGQIYPGDGDTNYNGKFKGKATLTADKSSSTAYMQLSSLTSEDSAVYFCARGREAAWFAYWGQGTLVTVSA
# VL: DIVLAQSPASLAVSLGQRATISCRASQSVSSFRYSYLHWYQQKPGQPPRLLIKYASNLESGVPARFSGSGSGTDFTLNIHPVEEEDTATYFCQHSWEIPFTFGSGTKLEIKR
# notes: The humanized M5-H1 and M5-H2 carry the CDRs of the un-numbered VL, so that one may be the functional light chain
# B5: M2 mouse anti-huCB-1 antibody (antibody, V domains shown)
# VH: EVQLQQSGPELVKPGTSVKISCKASGYTFTDYNMHWVKLGKSLEWIGYFYPDDGGSGYNQKFKGKATLTIDKSSSTAYMELHSLTSEDSAVYYCARGYGNSWGTYWGQGTLVTVSA
# VL: EIVLTQSPTTMAASPGEKITITCSASSRISSNYLYWYQQKPGFSPKLLIYRTSNLASGVPARFSGSGSGTSYSLTIGTMEAEDVATYYCQQGSSIPYTFGGGTKLEIK
# B6: M6 mouse anti-huCB-1 antibody (antibody, V domains shown)
# VH: EVQLQQSGPELVKPGASVKISCKASGYTFTDYNLHWVKHGKSLEWIGYIYPYDGDTGYKQKFKGKATLTADKSSSTAYMELRSLTCEDSAVYYCARGYGNSWGAYWGQGTLVTVSA
# VL: B5 VL with S26T, R28S, Y35H
# B7: M8 mouse anti-huCB-1 antibody (antibody, V domains shown)
# VH: QVQLQQPGAELVKPGASVKLSCKASGYTFTDYWMHWVKQRPGHGLEWIGEIYPSSGRANYNGNFKRKATLTVDKSSSTAYMQLSSLTSEDSAVYYCARSRGNYLPYWGHGTPVTVSA
# VL: QIVLTQSPAIMSASLGERVTMTCTAGSTVSSSYLHWYQQRPGSSPKLWIYGTSNLASGVPARFSGSGSGTSYSLTISSMEAEDAATYYCHQYHRSPPTFGGGTKLEIK
# B8: M4 mouse anti-huCB-1 antibody (antibody, V domains shown)
# VH: QVQLQQSGAELVRPGSSVKISCKASGYEFNYYWMNWVKQRPGQGLEWIGQIYPGDGDINYNGKFKGKATLTSDKSSSTVYMQLSSLTSEDSAVYFCSRSKGNPFAYWGQGTLVTVSA
# VL: DIQMTQTTSSLSASLGDSVTISCRASQGIRNYLNWYQQKPDGTVKLLIYYTSRLHSGVPPRFSGSGSGTDYSLTISNLEQEDLATYFCQQGNTLPYTFGGGTKLEIK
# B9: M7-H8 humanized anti-CB1 antibody (antibody, human IgG1, kappa, L234A L235A, V domains shown)
# VH: QVQLVQSGAEVKKPGASVKLSCKASSYTFTRYWMNWVRQAPGQGLEWIGMIDPYDSETHYNQKFQGRATLTVDTSTSTAYMELSSLRSEDTAVYFCARSQPRYYAMDYWGQGTTVTVSS
# VL: DIQMTQSPSSLSASLGDRVTLTCRASQEISGFLSWLQLKPGKTIKRLIYAASSLDSGVPSRFSGSWSGTDYTLTISSLQPEDFADYYCLQYSSYPYTFGGGTKLEIKR
# B10: M7-H13 humanized anti-CB1 antibody (antibody, human IgG1, kappa, L234A L235A, V domains shown)
# VH: B9 VH
# VL: B9 VL with L15V, T43A
# B11: M7-H14 humanized anti-CB1 antibody (antibody, human IgG1, kappa, L234A L235A, V domains shown)
# VH: B9 VH with L20V, I48M, A68V, L70M, V72R, A79V, F95Y
# VL: B9 VL with L15V, T43A
# B12: M7-H12 humanized anti-CB1 antibody (antibody, human IgG1, kappa, L234A L235A)
# heavy: not shown
# light: DIQMTQSPSSLSASVGDRVTLTCRASQEISGFLSWLQLKPGKAIKRLIYAASSLDSGVPSRFSGSWSGTDYTLTISSLQPEDFADYYCLQYSSYPYTFGGGTKLEIKRTVAAPSVFIFPPSDEQLKSGTASVVCLLNNFYPREAKVQWKVDNALQSGNSQESVTEQDSKDSTYSLSSTLTLSKADYEKHKVYACEVTHQGLSSPVTKSFNRGEC
# B13: M7-H15 humanized anti-CB1 antibody (antibody, human IgG1, kappa, L234A L235A, V domains shown)
# VH: QVQLVQSGAEVKKPGASVKVSCKASSYTFTRYWMNWVKQRPGEGLEWMGMIDPYDSETHYNQKFQGKVTMTVDKSSSTVYMELSSLRSEDTAVYFCARSQPRYYAMDYWGQGTTVTVSS
# VL: B9 VL with L15V, T43A
# B14: M7-H11 humanized anti-CB1 antibody (antibody, human IgG1, kappa, L234A L235A, V domains shown)
# VH: B9 VH with L20V, I48M, M50I, H59S, N61A, A68V, L70M, V72R, A79V, F95Y
# VL: B9 VL
# B15: M7-H9 humanized anti-CB1 antibody (antibody, human IgG1, kappa, L234A L235A, V domains shown)
# VH: B9 VH with L20V, I48M, A68V, L70M, V72R, A79V, F95Y
# VL: B9 VL
# B16: M7-H16 humanized anti-CB1 antibody (antibody, human IgG1, kappa, L234A L235A, V domains shown)
# VH: B9 VH with L20V, I48M, M50I, H59S, N61A, A68V, L70M, V72R, A79V, F95Y
# VL: B9 VL with L15V, T43A
# B17: M7-H10 humanized anti-CB1 antibody (antibody, human IgG1, kappa, L234A L235A, V domains shown)
# VH: B13 VH
# VL: B9 VL
# Biological target: T1, human cannabinoid receptor type 1 (CB1) (human, UniProt P21554 1-472)
# T1 construct: DiscoverX cAMP Hunter CHO-K1 CNR1 Gi cells for cAMP and pERK assays; also called huCB1; huCB-1
# T1 sequence (P21554 whole entry): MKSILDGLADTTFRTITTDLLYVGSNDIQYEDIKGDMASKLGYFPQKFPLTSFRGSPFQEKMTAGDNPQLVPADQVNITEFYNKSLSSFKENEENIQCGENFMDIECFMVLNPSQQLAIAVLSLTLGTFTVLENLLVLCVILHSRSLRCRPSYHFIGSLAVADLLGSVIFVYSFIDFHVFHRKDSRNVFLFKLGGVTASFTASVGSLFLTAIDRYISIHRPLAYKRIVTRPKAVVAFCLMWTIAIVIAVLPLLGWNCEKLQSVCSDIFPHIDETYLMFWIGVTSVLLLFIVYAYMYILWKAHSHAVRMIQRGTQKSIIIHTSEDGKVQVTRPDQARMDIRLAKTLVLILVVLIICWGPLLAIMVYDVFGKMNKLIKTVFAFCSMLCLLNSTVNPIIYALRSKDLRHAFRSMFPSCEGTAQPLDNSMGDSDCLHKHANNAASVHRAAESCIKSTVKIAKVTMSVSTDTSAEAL
# Test: FACS, titration on CB1 over-expressing CHO cells
# Protocol: (§1) Antibody binding was tested in a fluorescence activated cell sorting (FACS)-based assay for the ability of the mouse anti-CB1 antibodies to bind parental CHO cells, human CB-1 overexpressing CHO cells and mouse CB-1 overexpressing CHO cells to obtain binding curves and EC50 values. The three cell lines were harvested, washed and dispensed at 1×10⁵ cells per well of a v-bottomed 96-well polycarbonate FACS plates (Corning, Corning, N.Y., Cat. No. 3357) in 50 μl of FACS buffer (1×PBS/2 mM EDTA and 1% FBS (ThermoFisher Scientific, Anaheim, Calif.; Cat. No. 10438-026). Serial dilutions of the antibodies were prepared at 2× concentrations starting at 200 nM and serially diluted 3-fold. The titrated antibodies were added to the plates containing the three different cell lines (parental, human and mouse CB-1 CHO cells) and incubated at 4° C. for 1 hour. The plates were washed 3× with FACS buffer. […] None of the eight functional antibodies tested were mouse cross reactive (FIG. 3).
row,Binder,EC50 [nM]
1,B1,15.7
2,B2,13
3,B3,61.6
4,B4,20.2
5,B5,34.7
6,B6,43.5
7,B7,10.7
8,B8,19.2

# Biological target: T1, human cannabinoid receptor type 1 (CB1)
# Test: flow cytometry, single point at 30 ug/mL antibody, signal on CHO-huCB-1 cells relative to CHO parental cells
row,Binder,binding result
1,B9,binds
2,B10,binds
3,B11,binds
4,B12,binds
5,B13,binds
6,B14,binds
7,B15,binds
8,B16,binds
9,B17,binds

# Biological target: T2, mouse CB-1 (mouse, UniProt P47746 1-473)
# T2 construct: whole, on cells; also called moCB1; moCB1-CHO cells
# T2 sequence (P47746 whole entry): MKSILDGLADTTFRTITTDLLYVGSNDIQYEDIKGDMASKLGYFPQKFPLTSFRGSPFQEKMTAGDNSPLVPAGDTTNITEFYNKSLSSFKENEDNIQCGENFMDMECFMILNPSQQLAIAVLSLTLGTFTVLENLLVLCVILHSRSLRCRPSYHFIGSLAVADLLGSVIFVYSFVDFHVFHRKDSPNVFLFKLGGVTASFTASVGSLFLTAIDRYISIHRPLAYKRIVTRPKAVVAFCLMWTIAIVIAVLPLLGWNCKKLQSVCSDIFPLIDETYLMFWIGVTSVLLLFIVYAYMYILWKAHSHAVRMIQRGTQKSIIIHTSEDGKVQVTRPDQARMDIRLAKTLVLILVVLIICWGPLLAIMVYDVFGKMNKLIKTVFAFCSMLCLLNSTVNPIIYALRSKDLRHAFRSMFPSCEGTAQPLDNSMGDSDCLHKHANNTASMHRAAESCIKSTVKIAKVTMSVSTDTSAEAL
# Test: flow cytometry on CHO-Mouse CB1 cells, 3-fold antibody titration from 200 nM
# Protocol: as §1
row,Binder,binding result
1,B1,no binding (tested: 200 nM)
2,B2,no binding (tested: 200 nM)
3,B3,no binding (tested: 200 nM)
4,B4,no binding (tested: 200 nM)
5,B7,no binding (tested: 200 nM)
6,B8,no binding (tested: 200 nM)

# Biological target: T1, human cannabinoid receptor type 1 (CB1)
# Test: cell-based or functional assay
Binder,Mean P-ERK (% inhibition),Mean cAMP (% Amgen),P-ERK IC50 (nM) Data Set 1 [nM],P-ERK IC50 (nM) Data Set 2 [nM],cAMP EC50 (nM) Data Set 1 [nM],cAMP EC50 (nM) Data Set 2 [nM],cAMP EC50 (nM) Data Set 3 [nM]
B1,68,75,163,165,43,170,150
B2,95,61,117,170,78,120,120
B3,59,71,296,534,290,290,330
B4,101,61,191,50,91,170,170
B5,59,49,219,211,380,340,270
B6,42,21,144,300,310,290,640
B7,64,29,36,47,96,190,370
B8,70,41,97,890,180,320,430
